# B1: TPR t1 (parent)
# chain: GACCAAUCUGCCCUCAGAGCUCGAGAACAUCUUCGGAUGCAGAGGAGGCAGGCUUCGGUGGCGCGAUAGCGCCAACGUCCUCAACCUCCAAUGCAUCCCACCACAUGAUGAUGCCUGAAGAGCCUUGGUUUUUUG
# Variants of: B1
# Experiment: polymerase ribozyme fitness, log enrichment relative to wild type (log ratio); higher = more active; in vitro selection for triplet polymerase activity
# Procedure, shortened: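 Genotype fitness is the logarithm of its enrichment divided by wild-type enrichment, using inverse-variance-weighted averages of replicates. That logarithm is base 2. Enrichment was measured by Illumina sequencing of input and output libraries from one triplicate in vitro selection round, with frozen incubation at −7 °C, on PCR-built, transcribed mutant libraries of each subunit of a heterodimeric triplet polymerase ribozyme, retaining genotypes with ≥10 input reads and ≥1 read per output.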
row,Variant,polymerase ribozyme fitness (log ratio)
1,C49A C56U G120C U131G,1.43
2,C49U C56U,-0.758
3,G48U G61U G93U U112A C124A,-0.694
4,C49A U81A U87G,-0.13
5,G48U G61U U112C,1.56
6,G48U C73G A95G,-1.55
7,C49A C56U,0.0901
8,C49G C76U U87C,-1.3
9,G48U G93C A121G,0.759
10,C49G C56A C94U A111G,-1.5
11,C49U C56U U109G,-5.37
12,G48U G61A C89A A119U,-2.48
13,C49G G61A,-0.914
14,G48U C88G U96A,-3.43
15,C49A C82U G93C C99U G122U,-3.82
16,C49A G69C,-1.8
17,C49A C62G C76U,-5.79
18,C49A U116G,-2.39
19,C49G C101A,-1.3
20,C49U A66C C86G C88U U92A C114U,-5.32
21,C49A U78C,-0.24
22,C49G G69U,-0.396
23,C49A G69A G77A G122A,-4.61
24,C49A G69C A83C A84U,-4.35

row,Variant,polymerase ribozyme fitness (log ratio)
1,C49U A50G G51A U54G G61A U112C,-0.096
2,C49G G93A,-1.26
3,C49A G61U U81C G128U,-4.52
4,C49A C64U A66C C80A G117A,-7.53
5,C49A G57U G60U G113A,-1.65
6,G48U G52U G63C,-2.05
7,G48U C82G U92G,-4.41
8,G48U C88U,-1.36
9,G48U C88A,-0.373
10,C49A U81A A90U C123U,-1.24
11,C49G A50U C72A C94A,-2.42
12,C49G G77A U112G,-0.318
13,C49U C56A A68G,-5.08
14,C49G G69C U78C,-2.8
15,G48U G69U,-0.529
16,G48U G69A,-3.02
17,C49G U55G U129A,-1.82
18,C49A C102G C114U C115G,-6.27
19,C49U C70G,-3.77
20,C49G C72G G120C,-0.782
21,C49A C85A,-1.43
22,G48U G69A U87A,-6.61
23,G48U G52U C73U A90U C124G,-1.99
24,C49A C53G C73U A74G A100U,-2.75

row,Variant,polymerase ribozyme fitness (log ratio)
1,C49A C56A U131C U133A,-0.929
2,G48U C114G G117C G120C,-6.82
3,C49G G60U G110A,-1.76
4,G48U G120C,-0.358
5,C49U C82G,-0.241
6,C49U C82A,-0.514
7,C49A G63U C94U A118G,-1.43
8,C49G A74C G113A,-2.39
9,G48U U55G G69C G93U,-2.93
10,C49G G58C,-3.36
11,C49A A83C A84U,-0.775
12,C49G G127A,-1.65
13,C49G U112C G113A,-2.11
14,C49G C53G G69C C72U,-1.21
15,C49A G71U G120U,0.255
16,C49A U81C,-2.67
17,C49G C62U,-0.813
18,C49A C124A,1.63
19,G48U C104U,-0.515
20,C49U C53U C97U,-1.14
21,C49U A66G C73A C101A G128A,-4.92
22,C49U A95G,-1.14
23,C49A C70G U130C,-3.2
24,G48U C89U C124G G128A,-0.497

row,Variant,polymerase ribozyme fitness (log ratio)
1,G48U U112C A118U,0.638
2,C49A C62U A66G,-1.75
3,C49U C53A A111C,-0.429
4,C49A A74G,-0.173
5,C49G C115G G135U,-3.4
6,G48U U78C U92A A105U A121U,-5.76
7,C49G G51U U54G,-2.34
8,C49G U59G C62G C72U,-4.88
9,G48U U81G A91G G117U A119U,-7.47
10,C49A A50G G52U A118U,0.379
11,C49G C124G,1.58
12,C49A U55G A74C U81G A90G G117U,-2.62
13,C49A G128C,-3.42
14,C49G G60C A119U U133A,-2.93
15,C49G C123U,0.717
16,C49G C56G U87A G117A,-4.51
17,C49G C53A G57A C85A C88A C115G,-3.29
18,C49A A50C C56A C79A U132A,-3.18
19,C49G C64A G77U A83U G120U,-6.63
20,C49A G57U G127U,-1.6
21,C49G C85G,-2.67
22,C49A C53A C70U C86A U112G G128A,-5.42
23,C49G G52A C82G A84G A121U,0.784
24,C49G U55C C76U A95C C98U,-2.41

row,Variant,polymerase ribozyme fitness (log ratio)
1,C49A C62G,-2.22
2,G48U C79G,-3.52
3,C49U A50G G71U A105U,-4.83
4,C49A G77C C88A,-1.31
5,C49U C76U U81A C88A,-3.72
6,C49G G93A U133A,-0.83
7,G48U G57A C101U C124G,0.412
8,G48U G63A C79G,-6.13
9,C49G G120U C124A G135U,-1.63
10,C49G G57U G63A A119G U133G,-0.878
11,G48U G71A C123A U126A,-2.04
12,C49A G122A,-0.428
13,C49A C70U,-1.18
14,C49G G61U C88A,-1.08
15,C49U C72U C115U C123G,-2.4
16,C49A G51U C56A,-2.24
17,G48U G61U C88U G110A,-1.73
18,C49G G69U U125A G128A,-3.1
19,C49G U59G,-0.612
20,G48U C102U,-3.66
21,G48U G57U C76G U78A G117A,-2.42
22,C49U C53U C89U,-0.369
23,C49A G51U G52U A90G A119U,-2.42
24,C49U A50C,-0.544

row,Variant,polymerase ribozyme fitness (log ratio)
1,G48U G57A C62U U78C C114A U133G,-3.01
2,G48U U54G U129A,-1.88
3,C49A G52U A105U,-3.88
4,C49G C56A,-2.63
5,C49U C62U A118U,-0.00141
6,G48U U87G U133G,-0.334
7,G48U C101U,-1.59
8,C49U C73U U78C G110U,-2.87
9,C49G C53A C64U,-0.365
10,G48U C73U,-1.06
11,C49A C82A G110A,-1.04
12,C49A C56U G110C,-5.23
13,C49A G63A,-0.725
14,C49A U92C,-1.43
15,C49A U92G,-3.98
16,C49G U55G,-1.16
17,C49G G69A A119U U133A,-3.06
18,C49A C72A,0.275
19,C49A C72U,-1.37
20,C49G G63U U130G,-2.28
21,C49G C89G,-2.16
22,C49A U112A,1.49
23,G48U G71C,-1.77
24,C49G G57A U109A,-6.29

row,Variant,polymerase ribozyme fitness (log ratio)
1,G48U C79U G135C,-1.81
2,C49U C72G U78C,-1.33
3,G48U C89A U130A,-2.33
4,C49A A90C A103U C114A,-7.25
5,C49G G65U,-4.97
6,C49U C76G G113A,-1.81
7,C49A U133A,-0.928
8,C49U C79G C104A,-5.16
9,G48U G61U G113A,-1.24
10,G48U G52U C98U G117U,-6.54
11,C49U C73U G110A,-1.42
12,C49A C64U,-0.082
13,C49G G110A,-1.31
14,G48U U55G G69A,-2.77
15,C49A G117A,-1.89
16,C49A A121U,1.97
17,C49G A95U A111G,-0.422
18,C49G C70U,-1.3
19,G48U C86A C115U G120C,-2.47
20,C49A A75U C85G,-1.4
21,C49U C73G A121C,0.163
22,C49A G93U U125A U131G,-2.24
23,C49G C79U U96G,-0.996

# Source: the RNAGym collection of RNA variant scans (doi:10.1073/pnas.2313332121)
